Results on one molecule are retold here after US8633250B2, “Cell repair and regeneration by suramin and related polysulfonated napthylureas” (MUSC Foundation for Research Development, priority 2006, dated 2014).

What all share (assay type): cell-based, rabbit
The subject of assay [1] is renal proximal tubule cells (RPTC). Briefly: RPTC outgrowth from plated renal proximal tubules (photographs). Conditions: after 24 hr exposed for 24 hr, 50 μM suramin, 10 ng/ml EGF or suramin+EGF. As for the experimental part: (§1) Isolation and culture of renal proximal tubules: Isolation and culture of renal proximal tubules were performed as described previously (Rodeheaver et al., 1990; Nowak and Schnellmann, 1995; Nowak and Schnellmann, 1996). Female New Zealand White rabbits (1.5-2.5 kg) were purchased from Myrtle's Rabbitry (Thompson Station, Tenn.). RPTC were isolated using the iron oxide perfusion method and grown in 6-well tissue culture dishes under improved conditions. The culture medium was an 1:1 mixture of DMEM/Ham's F-12 (without glucose, phenol red, or sodium pyruvate) supplemented with 15 mM HEPES buffer, 2.5 mM L-glutamine, 1 μM pyridoxine HCl, 15 mM sodium bicarbonate, and 6 mM lactate. Hydrocortisone (50 μM), selenium (5 ng/ml), human transferrin (5 μg/ml) bovine insulin (10 nM) and L-ascorbic acid-2-phosphate (50 μM) were added daily to fresh culture medium.
(§2) Isolated tubules were plated at 1 mg protein/well in a 6-well plate. On day 2, RPTC were incubated in the presence and absence of various pharmacological inhibitors for different time periods as indicated in the figure legends. For some experiments, suramin was added to RPTC on day 3 and then incubated for 24 hr in the presence or absence of various inhibitors before samples were taken.

Assay [2] shares this test system. Put plainly: RPTC scattering, fibroblast-like morphology and lamellipodia (bright field, phalloidin staining). Conditions: 50 μM suramin or 10 ng/ml EGF, 24 hr, phalloidin staining. Here is the method:
as §1, §2
Immunocytochemistry: After various treatments, RPTC were fixed with 10% buffered formalin, washed, permeabilized, and blocked with BSA. […]

Assay [3] has the same test system. Briefly: Cell cycle analysis by flow cytometry: number of RPTC in S-phase. Conditions: 24 hr treatment, four days following plating; suramin 50 μM, EGF 10 ng/ml; untreated approximately 20%. Here is the method: as §1
Isolated tubules were plated at 1 mg protein/well in a 6-well plate. On day 2, RPTC were incubated in the presence and absence of various pharmacological inhibitors for different time periods as indicated in the figure legends. […]
Cell cycle analysis: Cell cycle phase was determined using flow cytometry as previously described (Zhuang et al., 2004). Cells were harvested, stained with propidium iodide and the number of cells in S-phase of cell cycle determined.
For orientation: A flow cytometer gives signals particle by particle.

Another assay has as its system EGF receptor. Briefly: Immunoblot of EGF receptor phosphorylation (Tyr1068) in RPTC. The note with it: 50 μM suramin, 10 ng/ml EGF or both for 10 min. Here is the method:
Preparation of cell lysates and immunoblot analysis: After different treatments, RPTC were washed twice with PBS and harvested in lysis buffer (0.25 M Tris-HCl, pH 6.8, 4% SDS, 10% glycerol, 1 mg/ml bromophenol blue, and 0.5% 2-mercaptoethanol). Cells were disrupted by sonication for 15 seconds and lysates stored at −20 °C. Equal amounts of cellular protein lysate were separated on 10% polyacrylamide gels and transferred to nitrocellulose membranes. After treatment with 5% skim milk at 4 °C overnight, membranes were incubated with various antibodies for 1 hr, and then incubated with an appropriate horseradish-peroxidase conjugated secondary antibody (Amersham, Piscataway, N.J.). Bound antibodies were visualized following chemiluminescence detection on autoradiographic film.
To determine whether suramin caused EGF receptor activation, we performed immunoblot analysis using an antibody against phosphorylated tyrosine 1068 of the EGF receptor. Total EGF receptor content was measured using immunoblot analysis and an antibody that recognizes the EGF receptor independent of its phosphorylation state to control for gel loading. […] Thus, suramin induced RPTC proliferation and scattering is not through the EGF receptor.

B1: EGF: Human recombinant EGF (epidermal growth factor) from R & D systems (protein, UniProt P01133 23-1207, looked up)
Pro-epidermal growth factor: PQHWSCPEGTLAGNGNSTCVGPAPFLIFSHGNSIFRIDTEGTNYEQLVVDAGVSVIMDFHYNEKRIYWVDLERQLLQRVFLNGSRQERVCNIEKNVSGMAINWINEEVIWSNQQEGIITVTDMKGNNSHILLSALKYPANVAVDPVERFIFWSSEVAGSLYRADLDGVGVKALLETSEKITAVSLDVLDKRLFWIQYNREGSNSLICSCDYDGGSVHISKHPTQHNLFAMSLFGDRIFYSTWKMKTIWIANKHTGKDMVRINLHSSFVPLGELKVVHPLAQPKAEDDTWEPEQKLCKLRKGNCSSTVCGQDLQSHLCMCAEGYALSRDRKYCEDVNECAFWNHGCTLGCKNTPGSYYCTCPVGFVLLPDGKRCHQLVSCPRNVSECSHDCVLTSEGPLCFCPEGSVLERDGKTCSGCSSPDNGGCSQLCVPLSPVSWECDCFPGYDLQLDEKSCAASGPQPFLLFANSQDIRHMHFDGTDYGTLLSQQMGMVYALDHDPVENKIYFAHTALKWIERANMDGSQRERLIEEGVDVPEGLAVDWIGRRFYWTDRGKSLIGRSDLNGKRSKIITKENISQPRGIAVHPMAKRLFWTDTGINPRIESSSLQGLGRLVIASSDLIWPSGITIDFLTDKLYWCDAKQSVIEMANLDGSKRRRLTQNDVGHPFAVAVFEDYVWFSDWAMPSVMRVNKRTGKDRVRLQGSMLKPSSLVVVHPLAKPGADPCLYQNGGCEHICKKRLGTAWCSCREGFMKASDGKTCLALDGHQLLAGGEVDLKNQVTPLDILSKTRVSEDNITESQHMLVAEIMVSDQDDCAPVGCSMYARCISEGEDATCQCLKGFAGDGKLCSDIDECEMGVPVCPPASSKCINTEGGYVCRCSEGYQGDGIHCLDIDECQLGEHSCGENASCTNTEGGYTCMCAGRLSEPGLICPDSTPPPHLREDDHHYSVRNSDSECPLSHDGYCLHDGVCMYIEALDKYACNCVVGYIGERCQYRDLKWWELRHAGHGQQQKVIVVAVCVVVLVMLLLLSLWGAHYYRTQKLLSKNPKNPYEESSRDVRSRRPADTEDGMSSCPQPWFVVIKEHQDLKNGGQPVAGEDGQAADGSMQPTSWRQEPQLCGMGTEQGCWIPVSSDKGSCPQVMERSFHMPSYGTQTLEGGVEKPHSLLSANPLWQQRALDPPHQMELTQ
modifications: Pro-epidermal growth factor
notes: Human recombinant EGF (epidermal growth factor) from R & D systems
Turning to B1, the RPTC outgrowth entry in assay [1] is reported as “promoted RPTC outgrowth”. Further, the “formation of lamellipodia and intercellular contacts” value in assay [2] is “increased the formation of lamellipodia and decreased intercellular contacts”. Also, the “RPTC in S-phase” value in assay [3] is on record as 32%. In addition, in the assay on EGF receptor, the “EGF receptor phosphorylation (tyrosine 1068)” value is reported as “did observe phosphorylated EGF receptor”.
